Reference: a protein production outcome set (Wang et al. 2014)

Assay: label from the status in PepcDB records

| Sequence | protein production |
| --- | --- |
| MKTESTGKALMVLGCPESPVQIPLAIYTSHKLKKKGFRVTVTANPAALRLVQVADPEGIYTDEMVDLESCINELAEGDYEFLAGFVPNDAAAAYLVTFAGILNTETLAIIFDRDADVLEELVNEIMETLDAEIIAARAHHNPAPLRVRIDRFMEEKP | not failed |
| MEQHIGELIAHYGYFGIVIALAGGIVGLPIPDEFLLTFVGYNVSKGVMSGTAAFLSGLAGAMLGITLSYILGLKLGLPVLKKYGPKIRIKEHHIEKTHILFEKYGPFLLMIGYFIPGVRHLTAYFAGVSNLTLWRFCLYAYGGALIWISVFIGLGWKLGEKWRFVEYSLHHYGIWILLISAVVTCFVWLYIKKKKNR | failed |
| MSLKITSIEVFDCELKKRDQTMSSYNPVLIRVNTDSGLSGIGEVGLAYGAGAKAGVGIIRDLAPLIVGEDPLNIEKIWEFFFRKTFWGMGGGNVFYAGMSAIDIALWDIKGKYLGVPVYQLLGGKTNEKLRTYASQLQFGWGDKRHILVTPEEYAEAARAALDDGYDAIKVDPLEIDRNGDDCVFQNRNRNYSGLLLADQLKMGEARIAAMREAMGDDADIIVEIHSLLGTNSAIQFAKAIEKYRIFLYEEPIHPLNSDNMQKVSRSTTIPIATGERSYTRWGYRELLEKQSIAVAQPDLCLCGGITEGKKICDYANIYDTTVQVHVCGGPVSTVAALHMETAIPNFIIHEHHTNAMKASIRELCTHDYQPENGYYVAPEQPGLGQELNDEVVKEYLAYVIKEGHHHHHH | not failed |
| MSSVFPKVAVLLAAYNGMAWIEAQLDSILKQANVCVSVFISVDTSSDGTEAWCADYAQHHVNITLLPPAGQFGGASRNFFRLIQDVDFSSFDYVAFSDQDDIWYQDKLERALSTLMSGNHDAYSSNVVAFWPDGQRILLDKAQPQVQWDHLFEAAGPGCTYVMNRPLADAFKSSLIAQWDVAQNVSLHDWYCYAFARSHGFRWFIDPAPGMDYRQHANNQVGANTGLASLITRLKKIADGWWAGQVLLIGRLTGGSETLFAGKITGTRWMFLRLAFMAGRCRRRPRDKIFFIIACLAAMLNTPEQRNNR | failed |
| PSVQVPQSTILYASDGSKLGETNYGEKRYWVPLKDMNPTIVKATVAIEDQNFYDHHGFDYKRMAGAALADLKAFAKVQGASTITQQYARNLYLEHDKTWKRKWNEAFYTIRLEQNYSKDEILEGYLNTIYYGHGAYGIEAASRLYFGKHAKNLTDAEAALLAGIPKGPSGY | failed |
| SEQSSPGFRQTHLQDLSEATQDVKEENHYLTPRSVLLELDNIIASSDSGESIETDGPDQVSGRIECHYEPMESYFFKETSHESVDSSKEEPQTLPETQDGDLHLQEQGSGIDWCLSPADVEAQTTNDQKGSASLTVVQLSILINNIPDESQVEKLNVFLSPPDVINYLALTEATGRICVSQWEGPRRLGCIFCHGDHLLAVNDLKPQSLEEVSLFLTRSIQKEKLKLTIGRIPNSETFHAASCMCPSKCQSAAPSQLDKPRLNRAPKRSPAIKKSQQKGARE | not failed |
| QTLLQANPDPVLVADAETGKIVEANAAATGLLGRPREEIIGAHQTDLHPSGRAEAYASLFRRSLDEDGPMRALPDGTQIEVVTDEGTTVPVEVNATTVDLPDGRVVYGVFRDVSE | failed |
| MKFFFLLQIALILLSNSSLLFGQSPPKEKEDSLLLYKEGKFKEAILNTLEEIRLNPSNLDARTILIWSLIAIGEYKRAEKEAIIGLGIKKHDIRIIQALGEAYFFQKNYDNALKYFQEYISLDSKGARIIKVYNLIADSFYELKRYNEADFAYEHALRFSPNNQNLLIKLARSRINAKNKILAEEALIKILTISPNNLEAKNLLEELKKSNNKP | failed |
| MTEKFGAKSTADEVLSGVDLRGKRFLITGVSSGIGLETARALVAHGASVVGAVRDRAKAERATASVRDAASQGGGTLELTELDLASLQSIRACADRLLADGRRFDSIIANAGVMATPFARTADGFELQFGTNHLGHFALVNRIASLLADNGRLVVLSSQAHRVADVDLDDPNFERQAYDPWVAYGRSKTATSLFAAEFDKRHRDRGIRAASVMPGNSLTDLPRHLRQEDLQGLFETVGKARAEAGLPPAELKDIPQVAATSVWAAVVADKDEIGGHYLDDCAVAPINDTPNPFADGVRSYALDADKAKRLWAKSEEWIGANTAAI | failed |
| MAYSPSLNDIKSILNKYTSKDYELKCENRYDGKLELWLKGVFEEIVKTPGTRYVTHKQLDEKLKNFVTKTEFKEFQTVVMESFAVQNQNIDAQGEQIKELQVEQKAQGKTLQLILEALQGINKRLDNLESK | failed |
| MQYQGRSKRSKTGARLRPRSKKSKSELGREPTETTVGEPRFRTVDVRGDAEKVRVLSTNVVNVATDSGAERATIEDVSANDANPNYARRNIITKGAIIETDAGTARVTSRPGQDGQVNATRVDE | failed |
| DAHSTIDSRIIHFKLEFANEFLAEKLQVALQSPVYNIYRLRIIDGKPYVLEQTYMSTDVIPGITEDILQKSIYNYIEGKLGLHIASATKILRASSSSENEQHYLQLLPTEPVFEVEQVAYLDNGTPFEYSISRHRYDLFE | not failed |
| MRTDDSALKNLGKGRESTTLEMKHRELCSGKTIDLGKKMRRALVLDNIRVQSLQLKIKAMTSSTTEQSVSETQIPLTSGIKLESLNYIVTVELGGKNMSLIVDTGSDLTWVQCQPCRSCYNQQGPLYDPSVSSSYKTVFCNSSTCQDLVAATSNSGPCGGNNGVVKTPCEYVVSYGDGSYTRGDLASESILLGDTKLENFVFGCGRNNKGLFGGSSGLMGLGRSSVSLVSQTLKTFNGVFSYCLPSLEDGASGSLSFGNDSSVYTNSTSVSYTPLVQNPQLRSFYILNLTGASIGGVELKSSSFGRGILIDSGTVITRLPPSIYKAVKIEFLKQFSGFPTAPGYSILDTCFNLTSYEDISIPIIKMIFQGNAELEVDVTGVFYFVKPDASLVCLALASLSYENEVGIIGNYQQKNQRVIYDTTQERLGIVGENCRV | failed |
| SKVEVIYKELGKQHRFSFKGQIFFVSIDSMMEKIDFNIEDSVIVLNFDHAHLWDDSAVNAIDTIVRKFEEKNNVVYVEKLNADSRKIISELSYLNETHL | failed |
| MRLEGEGRSARAGQNLSRAGSARRGAPRDLSMNNLTELQPGLFHHLRFLEELRLSGNHLSHIPGQAFSGLYSLKILMLQNNQLGGIPAEALWELPSLQSLDLNYNKLQEFPVAIRTLGRLQELGFHNNNIKAIPEKAFMGNPLLQTIHFYDNPIQFVGRSAFQYLPKLHTLSLNGAMDIQEFPDLKGTTSLEILTLTRAGIRLLPSGMCQQLPRLRVLELSHNQIEELPSLHRCQKLEEIGLQHNRIWEIGADTFSQLSSLQALDLSWNAIRSIHPEAFSTLHSLVKLDLTDNQLTTLPLAGLGGLMHLKLKGNLALSQAFSKDSFPKLRILEVPYAYQCCPYGMCASFFKASGQWEAEDLHLDDEESSKRPLGLLARQAENHYDQDLDELQLEMEDSKPHPSVQCSPTPGPFKPCEYLFESWGIRLAVWAIVLLSVLCNGLVLLTVFAGGPVPLPPVKFVVGAIAGANTLTGISCGLLASVDALTFGQFSEYGARWETGLGCRATGFLAVLGSEASVLLLTLAAVQCSVSVSCVRAYGKSPSLGSVRAGVLGCLALAGLAAALPLASVGEYGASPLCLPYAPPEGQPAALGFTVALVMMNSFCFLVVAGAYIKLYCDLPRGDFEAVWDCAMVRHVAWLIFADGLLYCPVAFLSFASMLGLFPVTPEAVKSVLLVVLPLPACLNPLLYLLFNPHFRDDLRRLRPRAGDSGPLAYAAAGELEKSSCDSTQALVAFSDVDLILEASEAGRPPGLETYGFPSVTLISCQQPGAPRLEGSHCVEPEGNHFGNPQPSMDGELLLRAEGSTPAGGGLSGGGGFQPSGLAFASHV | failed |
| MTRLFSRPYPLGATLNKEGCNFSIHAPGVKDIQLALFASDGSYSLHDLPNEYAGIRHTFIPDIKPGQKYGYVVTRRDEPLLISDPYAKSLDKALHYHPPYTPAKSFDMPKCVVIE | failed |
| IVPDAQDLGKSYGIRPSFIIAQAALDSDFGEKILANKYHNLFGLLAEPGTPSITLNDSSTGKKQEKQFTHYKSWKYSMYDYLAHIKSGATGKKDSYTIMVSVKNPKTLVQKLQDSGFDNDKKYAKKMTEIIDLYDLTRYDK | failed |
| MKQILFLLAAVLLLGGCAEEKKTDVRWATFNIRYDNPQDSLNNWQYRKDRVCQFIKDHELDIVGMQEVLHNQFQDLRAGLPEYDGIGVGRDDGKTAGEYAPLFYRKDKYEVLDSNTFWLAENPDSVGMMGWDAVCVRIATWAKFKDKATGKIFMAVNTHFDHVGEEARRQSALLIIRKIKEIVGERPAVVTGDFNVTDASDAYETITTNEFVMKDAYKTAARVTGVDYTFHDFARIPAEDCEKIDFIFVTPQVLVKSCEIPAEVPEALLSDHNPQLADLEF | failed |
| MILGIDIGGANTKITELHENGEFKVHHLYFPMWKNNDKLAEVLKTYSKDISHVALVTTAELADSYETKKEGVDNILNAAESAFGSNISVFDSDGNFISLEGAKTNYMKVSASNWCGTAKWVSKNIEENCILVDMGSTTTDIIPIVDGKVVAEKTDLERLMNHELLYVGTLRTPISHLGNTILFKGVNTNVSSEYFAITADISVVLEKVTTEEYTCDTPDGKGTDKRSSLVRISKVLCSDLDQISEIDAENIAKTYYELWKELILENVKKVAEKYGSKKVVITGIGENILKDALGDFEVISVAERYGKDVSLATPSFAVAELLKNELLEHHHHHH | not failed |
| MQDIHFRRHYVRHLPKEVSQNDIIKALASPLINDGMVVSDFADHVITREQNFPTGLPVEPVGVAIPHTDHKYVRQNAISVGILAEPVNFEDMGGEPDPVPVRVVFMLALGESNKQLNVLGWIMDVIQDEDFMQQLLVMNDDEIYQSIYTRISERGEV | not failed |
| ENGRYEYIVIGSEAAGVGLVRELTAAGKKVLAVDKSKEKIELLEDEGFDAVIADPTDESFYRSLDLEGVSAVLITGSDDEFNLKILKALRSVSDVYAIVRVSSPKKKEEFEEAGANLVVLVADAVKQAFMDKIKKMETL | not failed |
| MVSMLTRIRRQIKRVIEPLAKTLAQLKVSANFITMLGLIFAIVYYFEIMRSNTTLGIIFLVFSALMDAIDGEVARVSKTVSPLGSFLDSTLDRIEDILYISAFIFLGFSSYLVAIAVGLSLTISYIRAKAESLGLKMEGRGIIERGERIIFVFVILLLYIIVSKQVSLYLFYLFMLLTAITVIQRFYAVYSLLRK | failed |
| MTGEKIRSLRRDHKPSKEEGDLLEPGDEEAAAALGGTFTRSRIGKGGKACHKIFSNHHHRLQLKAAPASSNPPGAPALPLHNSSVTANSQSPALLAGTNPVAVVADGGSCPAHYPVHECVFKGDVRRLSSLIRTHNIGQKDNHGNTPLHLAVMLGNKECAHLLLAHNAPVKVKNAQGWSPLAEAISYGDRQMITALLRKLKQQSRESVEEKRPRLLKALKELGDFYLELHWDFQSWVPLLSRILPSDACKIYKQGINIRLDTTLIDFTDMKCQRGDLSFIFNGDAAPSESFVVLDNEQKVYQRIHHEESEMETEEEVDILMSSDIYSATLSTKSISFTRAQTGWLFREDKTERVGNFLADFYLVNGLVLESRKRREHLSEEDILRNKAIMESLSKGGNIMEQNFEPIRRQSLTPPPQNTITWEEYISAENGKAPHLGRELVCKESKKTFKATIAMSQEFPLGIELLLNVLEVVAPFKHFNKLREFVQMKLPPGFPVKLDIPVFPTITATVTFQEFRYDEFDGSIFTIPDDYKEDPSRFPDL | failed |
| MVKPMHLFAVVDALEQAQQFQQVLASRDVSTELVQIEQLNARFLRHHPELALCVDLDGLWLSANGMKMQPDWQAEIPRLKRASLKSEMIARACQINEQPSLIDATAGLGHDSLLMAYLGAHVTLVERHPVLFTLLEDAKSKAENDPFLSKYMQRIHLIFQDAHYYLQQCNQDDRKVDVIYLDPMFPQRDQHHQVIKKQAQVKKQMQLLHLLLPEDGEMDLGDQLLPLAQQIASRVVVKRPKHAVFLNEQQPDHQWQGDACRFDAYFQISMLEHHHHHH | failed |
